The supplement of paper PMC10567573

B1: LMNB1 (parent)
chain: LYKEELEQTYHAKLENARLSSEMN

Variants of: B1
Assay: protein stability index of a GFP-peptide fusion (GPS, HEK-293T) (PSI 1-6); higher = more stable
Conditions: c terminus: a fixed tail appended
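Further: lentivirally expressed fusions sorted by FACS into six bins by GFP to DsRed ratio, PSI derived from sequencing read proportions per bin multiplied by bin number.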

Protein stability index, by site and new letter:
Y10: G 4.52; T 4.66; V 4.49; F 3.67; I 4.17; Q 4.79; S 4.49; W 2.63; L 4.23; C 4.16; E 5.55; M 4.27; R 4.48; D 4.97; P 4.4; K 5.14; A 4.25; H 4.8; N 4.67
L6: R 4.38; D 4.72; F 3.21; P 4.39; E 4.49; A 4.29; T 4.75; C 3.8; G 3.81; M 4.03; K 4.4; N 4.57; H 4.26; Q 5.03; V 4.34; I 3.46; S 4.7; Y 4.48; W 4.74
S21: K 2.91; Q 2.55; M 2.72; V 2.26; R 2.25; F 2.42; D 3.48; L 1.78; P 2.37; G 2.51; E 3.18; Y 2.1; C 2.02; A 2.68; H 2.59; N 2.55; T 2.83; I 2.35; W 1.82
R18: W 1.08; V 2.1; N 3.83; L 2.81; E 3.72; F 2.17; D 3.7; C 2.6; G 3.35; H 3.1; P 3.62; M 2.76; T 2.73; I 2.27; Q 3.14; S 2.92; Y 2.24; A 3.26; K 3.31
E5: A 2.28; D 3.01; Y 3.37; S 2.4; F 2.28; R 1.76; W 1.37; M 2.42; V 2.77; P 3.1; H 2.27; I 1.82; C 2.32; N 2.53; G 2.46; L 3.89; K 3.09; T 1.83; Q 1.54
Q8: N 2.8; D 3.46; I 2.52; P 3.84; C 2.86; H 2.08; M 2.5; L 2.38; R 2.81; T 3.21; V 2.09; A 2.19; E 3.15; Y 2.45; W 1.71; K 2.49; F 2.09; S 2.56
E22: H 2.22; I 2.74; A 2.63; F 1.93; C 2.83; G 2.81; D 2.62
E4: R 2.51; Y 2.08; S 2.94; P 3.68; W 1.55; M 2.18; V 2.97; Q 2.56; N 3.27; T 3.06
S20: G 2.7; F 2.29; T 2.74; V 2.88; R 3.26; C 2.21; W 1.82; Y 1.93; D 2.71; L 3.38; Q 2.91; M 2.58; I 2.81; A 2.63; K 3.6; N 3.07; H 2.73; P 3.18; E 2.04
E15: P 3.31; Q 2.58; K 2.98; N 2.71; G 2.65; A 2.61; L 2.9; S 2.33; T 2.25; V 2.01; W 1.94; F 2.38; R 2.76; C 2.06; I 2.44; D 3.48; H 2.38; M 1.94; Y 2.47
H11: Y 2.48; W 3.08; N 3.14; C 3.73; P 3.91; L 2.84; Q 4.24; R 2.88; D 4.95; K 2.4; E 4.71; T 4.16; I 3.12; S 4.06; M 3.45; V 3.53; A 3.81; F 3.29
A12: E 4.72; S 4.29; I 2.87; C 2.09; Q 4.25; T 4.08; D 4.61; P 3.73; W 2.65; M 2.36; G 3.44; K 4.32; N 4.38; V 3.48; L 3.17; H 3.71; Y 3.52
T9: S 3.92; N 3.88; I 2.6; H 2.7; Y 3.31; E 4.24; A 3.59; F 2.57; R 3.64; M 2.65; P 4.23; K 3.1; L 2.16; Q 3.77; D 4.61; V 2.61; W 3.65; C 3.12
A17: I 1.97; L 2.44; C 1.82; F 1.82; W 1.78; E 4.26; Y 2.2; R 3.71; T 2.61; M 1.98; D 4.14; H 3.52; K 3.9; V 1.41; Q 3.72; P 2.66; S 3.61; N 3.86; G 4.01
N16: A 2.98; Q 3.32; E 4; F 1.89; M 3.03; D 2.92; K 2.98; G 2.27; S 2.42; Y 1.83; P 3.33; R 2.92; T 2.96; V 2.3; L 3.23; I 2.35; C 2.48; H 3.14
L19: F 2.68; V 2.88; A 3.67; R 3.79; S 3.08; N 3.76; C 3.36; H 3.31; T 3.6; Q 3.92; P 2.74; E 4.75; M 3.15; I 2.39; D 4.25; K 3.35; G 3.88; W 1.8; Y 2.36
L14: P 5; Q 4.56; H 4.59; D 4.74; F 2.58; K 5.64; G 4.36; I 3.46; N 4.54; W 3.11; S 4.66; E 4.64; Y 3.51; M 3.09; A 4.49; T 4.34; C 4.28; R 4.78; V 3.49
E7: F 1.83; P 3.35; M 2.07; Y 2.38; V 3.05; L 3.17; K 2.77; N 3.38; A 2.47; R 3.44; S 2.72; G 3.23; H 2.53; D 3.52; I 2.84; C 2.11; W 2.34; T 3.26; Q 3.4
K13: L 2.38; V 2.8; F 2.25; P 4.37; Y 1.84; S 2.82; H 3.08; G 4.57; E 4.33; D 4.59; M 2.48; T 2.06; Q 3.06; I 1.95; W 2.65; N 3.35; A 3.93; C 2.71; R 2.55
